The target in the first test is T1, Boi1 SH3 (BOI1_YEAST), P38041.
T1 chain: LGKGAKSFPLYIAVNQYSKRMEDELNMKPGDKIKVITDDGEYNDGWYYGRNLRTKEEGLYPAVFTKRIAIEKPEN
Put plainly: SPOT array.
Turning to AKTNKNVPVLPTPG [YDL195W 766-779], the normalised SPOT signal, Boehringer light units (BLU); mean over the file's lines of this peptide came out at 1420.

In turn, ALSTKGYPHEPPLL [YGR172C 61-74] registered a normalised SPOT signal, Boehringer light units (BLU); mean over the file's lines of this peptide of 193.

On to AKLRKFHPPEPYKG [YHR147C 183-196], for which the normalised SPOT signal, Boehringer light units (BLU); mean over the file's lines of this peptide was 274.

Turning to ALLRRTIPKRPFYH [YDL142C 12-25], the normalised SPOT signal, Boehringer light units (BLU); mean over the file's lines of this peptide was 4780.

For ALEERFDPKSPTKR [YMR129W 520-533], the normalised SPOT signal, Boehringer light units (BLU); mean over the file's lines of this peptide was found to be 948.

For AKVNKSPPDHPYIQ [YHR094C 277-290], the normalised SPOT signal, Boehringer light units (BLU); mean over the file's lines of this peptide came out at 426.

The molecule AKINKVSPEDPWVL [YDL245C 273-286] showed a normalised SPOT signal, Boehringer light units (BLU); mean over the file's lines of this peptide of 117.

Another test addresses T2, Boi2 SH3 (BOI2_YEAST), P39969.
T2 chain: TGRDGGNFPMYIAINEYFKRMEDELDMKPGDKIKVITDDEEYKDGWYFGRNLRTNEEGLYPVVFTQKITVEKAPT
Put plainly: SPOT array.
Consider AKTNKNVPVLPTPG [YDL195W 766-779], for which the normalised SPOT signal, Boehringer light units (BLU); mean over the file's lines of this peptide is 70.7.

Turning to ALSTKGYPHEPPLL [YGR172C 61-74], the normalised SPOT signal, Boehringer light units (BLU); mean over the file's lines of this peptide was found to be 12.6.

In the case of AKLRKFHPPEPYKG [YHR147C 183-196], the normalised SPOT signal, Boehringer light units (BLU); mean over the file's lines of this peptide turned out to be 34.8.

For ALLRRTIPKRPFYH [YDL142C 12-25], the normalised SPOT signal, Boehringer light units (BLU); mean over the file's lines of this peptide was determined as 253.

For ALEERFDPKSPTKR [YMR129W 520-533], the normalised SPOT signal, Boehringer light units (BLU); mean over the file's lines of this peptide amounted to 13.4.

AKVNKSPPDHPYIQ [YHR094C 277-290] returned a normalised SPOT signal, Boehringer light units (BLU); mean over the file's lines of this peptide of 20.2.

In the case of AKINKVSPEDPWVL [YDL245C 273-286], the normalised SPOT signal, Boehringer light units (BLU); mean over the file's lines of this peptide turned out to be 12.9.

The next test concerns the target T3, Myo5 SH3 (MYO5_YEAST), Q04439.
T3 chain: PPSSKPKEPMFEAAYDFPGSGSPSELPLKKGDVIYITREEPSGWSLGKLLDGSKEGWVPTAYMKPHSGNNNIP
Briefly: SPOT array.
In the case of AKTNKNVPVLPTPG [YDL195W 766-779], the normalised SPOT signal, Boehringer light units (BLU); mean over the file's lines of this peptide was 130.

In turn, ALSTKGYPHEPPLL [YGR172C 61-74] showed a normalised SPOT signal, Boehringer light units (BLU); mean over the file's lines of this peptide of 139.

AKLRKFHPPEPYKG [YHR147C 183-196] showed a normalised SPOT signal, Boehringer light units (BLU); mean over the file's lines of this peptide of 119.

For ALLRRTIPKRPFYH [YDL142C 12-25], the normalised SPOT signal, Boehringer light units (BLU); mean over the file's lines of this peptide turned out to be 914.

In turn, ALEERFDPKSPTKR [YMR129W 520-533] returned a normalised SPOT signal, Boehringer light units (BLU); mean over the file's lines of this peptide of 108.

AKVNKSPPDHPYIQ [YHR094C 277-290] had a normalised SPOT signal, Boehringer light units (BLU); mean over the file's lines of this peptide of 164.

As to AKINKVSPEDPWVL [YDL245C 273-286], the normalised SPOT signal, Boehringer light units (BLU); mean over the file's lines of this peptide worked out at 121.

The target in a further test is T4, Rvs167 SH3 (RV167_YEAST), P39743.
T4 chain: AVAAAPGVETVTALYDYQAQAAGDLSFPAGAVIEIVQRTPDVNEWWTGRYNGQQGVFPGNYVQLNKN
Put plainly: SPOT array.
The molecule AKTNKNVPVLPTPG [YDL195W 766-779] gave a normalised SPOT signal, Boehringer light units (BLU); mean over the file's lines of this peptide of 136.

Regarding ALSTKGYPHEPPLL [YGR172C 61-74], the normalised SPOT signal, Boehringer light units (BLU); mean over the file's lines of this peptide is 63.8.

AKLRKFHPPEPYKG [YHR147C 183-196] gave a normalised SPOT signal, Boehringer light units (BLU); mean over the file's lines of this peptide of 48.5.

As for ALLRRTIPKRPFYH [YDL142C 12-25], the normalised SPOT signal, Boehringer light units (BLU); mean over the file's lines of this peptide amounted to 1850.

The molecule ALEERFDPKSPTKR [YMR129W 520-533] returned a normalised SPOT signal, Boehringer light units (BLU); mean over the file's lines of this peptide of 56.3.

Turning to AKVNKSPPDHPYIQ [YHR094C 277-290], the normalised SPOT signal, Boehringer light units (BLU); mean over the file's lines of this peptide is 53.

Molecule AKINKVSPEDPWVL [YDL245C 273-286] yielded a normalised SPOT signal, Boehringer light units (BLU); mean over the file's lines of this peptide of 39.

In a further test the target is Sho1 SH3 (SHO1_YEAST), P40073. Put plainly: SPOT array.
Sequence of Sho1 SH3 (SHO1_YEAST), P40073 (P40073 295-366): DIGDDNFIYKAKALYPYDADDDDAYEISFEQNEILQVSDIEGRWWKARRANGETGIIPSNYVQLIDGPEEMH
In the case of AKTNKNVPVLPTPG [YDL195W 766-779], the normalised SPOT signal, Boehringer light units (BLU); mean over the file's lines of this peptide was found to be 91.3.

ALSTKGYPHEPPLL [YGR172C 61-74] registered a normalised SPOT signal, Boehringer light units (BLU); mean over the file's lines of this peptide of 35.4.

AKLRKFHPPEPYKG [YHR147C 183-196] came in with a normalised SPOT signal, Boehringer light units (BLU); mean over the file's lines of this peptide of 133.

ALLRRTIPKRPFYH [YDL142C 12-25] displayed a normalised SPOT signal, Boehringer light units (BLU); mean over the file's lines of this peptide of 34.4.

Molecule ALEERFDPKSPTKR [YMR129W 520-533] registered a normalised SPOT signal, Boehringer light units (BLU); mean over the file's lines of this peptide of 33.3.

The molecule AKVNKSPPDHPYIQ [YHR094C 277-290] displayed a normalised SPOT signal, Boehringer light units (BLU); mean over the file's lines of this peptide of 32.9.

AKINKVSPEDPWVL [YDL245C 273-286]: the normalised SPOT signal, Boehringer light units (BLU); mean over the file's lines of this peptide stood at 23.6.

For a further test, the target named is T5, Yfr024 SH3 (LSB3_YEAST), P43603.
T5 chain: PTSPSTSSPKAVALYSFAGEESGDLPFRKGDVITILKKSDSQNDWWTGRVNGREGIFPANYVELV
Briefly: SPOT array.
For AKTNKNVPVLPTPG [YDL195W 766-779], the normalised SPOT signal, Boehringer light units (BLU); mean over the file's lines of this peptide turned out to be 97.7.

ALSTKGYPHEPPLL [YGR172C 61-74] yielded a normalised SPOT signal, Boehringer light units (BLU); mean over the file's lines of this peptide of 26.8.

AKLRKFHPPEPYKG [YHR147C 183-196] had a normalised SPOT signal, Boehringer light units (BLU); mean over the file's lines of this peptide of 128.

Take ALLRRTIPKRPFYH [YDL142C 12-25]: the normalised SPOT signal, Boehringer light units (BLU); mean over the file's lines of this peptide was 7070.

In turn, ALEERFDPKSPTKR [YMR129W 520-533] had a normalised SPOT signal, Boehringer light units (BLU); mean over the file's lines of this peptide of 4.1.

The molecule AKVNKSPPDHPYIQ [YHR094C 277-290] showed a normalised SPOT signal, Boehringer light units (BLU); mean over the file's lines of this peptide of 39.4.

AKINKVSPEDPWVL [YDL245C 273-286] displayed a normalised SPOT signal, Boehringer light units (BLU); mean over the file's lines of this peptide of 14.9.

Another test addresses T6, Yhr016c SH3 (YSC84_YEAST), P32793.
T6 chain: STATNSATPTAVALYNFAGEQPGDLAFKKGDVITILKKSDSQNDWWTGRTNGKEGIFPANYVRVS
Briefly: SPOT array.
AKTNKNVPVLPTPG [YDL195W 766-779] displayed a normalised SPOT signal, Boehringer light units (BLU); mean over the file's lines of this peptide of 30.3.

Consider ALSTKGYPHEPPLL [YGR172C 61-74], for which the normalised SPOT signal, Boehringer light units (BLU); mean over the file's lines of this peptide came to 15.2.

In turn, AKLRKFHPPEPYKG [YHR147C 183-196] returned a normalised SPOT signal, Boehringer light units (BLU); mean over the file's lines of this peptide of 32.7.

As to ALLRRTIPKRPFYH [YDL142C 12-25], the normalised SPOT signal, Boehringer light units (BLU); mean over the file's lines of this peptide amounted to 972.

In turn, ALEERFDPKSPTKR [YMR129W 520-533] showed a normalised SPOT signal, Boehringer light units (BLU); mean over the file's lines of this peptide of 63.6.

Take AKVNKSPPDHPYIQ [YHR094C 277-290]: the normalised SPOT signal, Boehringer light units (BLU); mean over the file's lines of this peptide stood at 18.6.

Take AKINKVSPEDPWVL [YDL245C 273-286]: the normalised SPOT signal, Boehringer light units (BLU); mean over the file's lines of this peptide turned out to be 12.2.

These data come from publication PMC314469, “Protein Interaction Networks by Proteome Peptide Scanning” (PLoS Biology, 2004).
